Read-outs that look alike come from different tables or passages of the source.
Legend:
[1] = human, in vivo
From the text: Two peripheral intravenous catheters were placed, one for tracer injection and one in the contralateral arm for withdrawal of blood samples and administration of i.v. contrast agent. Electrocardiogram and vital signs as well as safety blood samples were monitored before and following [^68Ga]Ga-NODAGA-E[c(RGDyK)]2 injection. […] Furthermore, urine was collected for pharmacokinetic analysis and dosimetry in a subset of patients (Figure 1).

[2] = parameters: species or system human; details: in vivo
Experimental: Dosimetry was based on the decay-uncorrected image sets from the 3 time points (10 patients) supplemented with sampled urine data (7 patients). For each patient, organ, and time point, tissue activity concentration (kBq/mL) was determined in VOIs defined on CT. Activity (per patient, organ and time) was estimated by multiplying concentration values by organ masses of the OLINDA adult phantom, normalized per injected MBq and scaled for patient weight. Time integrated activity coefficients (TIAC, unit h) for each patient and organ was determined by numerical integration and analytical extrapolation to infinity assuming only physical decay. The resulting organ TIACs were averaged over patients. All data were entered into OLINDA/EXM 2.0 software (Vanderbilt University, TN, USA and HERMES Medical Solutions, Stockholm, Sweden).
Urine was collected immediately after each scan in pre-weighted plastic bottles. The cumulated decay-corrected activity (MBq) of the excreted urine was plotted over time for all 7 subjects and data fitted to a one-phase exponential association. […] A detailed description of the dosimetry is available in Supplementary Material (Section S2).
testine, spleen, stomach contents, testes, thyroid, and upper large intestine. For each pa-
tient, organ, and time-point, tissue activity concentration (kBq/mL) was calculated as the
average of the mean values from 3 VOIs. Total activity (per patient, organ and time) was
estimated by multiplying these average values by organ masses of the OLINDA male
adult phantom. Activity values were normalized to 1MBq by dividing with injected
activity and scaled with the ratio of actual patient weight to the weight of the standard
model (73 kg). As a surrogate for red marrow activity, VOIs were drawn encompassing
large portions of the L3–L5 vertebrae. Time integrated activity coefficients (TIAC, for-
merly known as residence time; unit h) for each patient and organ was determined by nu-
merical integration up to the third (last) data point and analytical extrapolation to infinity
assuming only physical decay. Piecewise linearity was assumed from time zero up to the
second data point and a mono-exponential was used between the second and third data
points. The resulting organ TIACs were averaged over patients. All data were entered into
OLINDA/EXM 2.0 software (Vanderbilt Universi ty, and HERMES Medical Solutions).
Urine was collected immediately after each scan in pre-weighted plastic bottles and
for each individual voiding the weight (volume) was measured and a 500 μL sample was
drawn for activity measurement in a calibrated gamma well counter (Cobra II TM,
Gamma Counting Systems; PACKARD, Meriden, CT, USA).The cumulated decay cor-
rected activity (in MBq) of the excreted urine, normalized to 1 MBq of injection, was plot-
ted over time (in Excel) for all 7 subjects and data fitted to a one phase exponential asso-
ciation (exponential growing towards a limit). The resulting limit and half-life were used
as input to the bladder voiding model of OLINDA, yielding the TIAC for bladder con-
tents. In concordance with the actual setup a bladder voiding interval of 1 hour was se-
The value for “remainder tissue” was calculated as the total area (in h) for 1 MBq
minus the sum of the organ-specific values (except bladder) minus the value passed to
urine (based on the fitted model parameters). The fraction of the latter that is attributed to
the bladder depends on the voiding interval.
The output from OLINDA consists of absorbed doses for organs and effective dose
with weight factors according to ICRP 103 [3]. […]
3. The 2007 Recommendations of the International Commission on Radiological Protection. ICRP publication 103. Ann ICRP

[3] = parameters: species or system human; details: in vivo, iv
From the text: Two peripheral intravenous catheters were placed, one for tracer injection and one in the contralateral arm for withdrawal of blood samples and administration of i.v. contrast agent. Electrocardiogram and vital signs as well as safety blood samples were monitored before and following [^68Ga]Ga-NODAGA-E[c(RGDyK)]2 injection. […] Furthermore, urine was collected for pharmacokinetic analysis and dosimetry in a subset of patients (Figure 1). The activity concentration of the urine and plasma was counted on Cobra II TM Gamma Counter (Packard, CT, USA). Blood and urine samples were analyzed on a Dionex UltiMate 3000 column-switching high-performance liquid chromatography (HPLC) system with a Posi-RAM Module 4 (ThermoFisher Scientific, Waltham, MA, USA). The full blood samples were centrifuged (3500 rpm, 4 min) and the supernatant plasma was collected and filtered through a […] syringe filter prior to the HPLC analysis. The HPLC analysis consisted of an extraction step and an analytical step, as previously described. During the extraction step, the plasma samples were passed through a shim-pack XR-ODS (30 × 4.6 mm, 2.2 μm). The valves were switched, and the sample was then analyzed on an Onyx monolithic column (C18, 50 × 4.6 mm). […]

integrin subtype αvβ3 = details: in vitro; unlabelled NODAGA-E[c(RGDyK)]2; ref Bentsen et al., unpublished data; read-out: affinity (KD); cited from earlier work
From the text: A large number of PET tracers with the RGD motif have been developed and tested preclinically. However, only a few have reached testing in clinical trials, and none have yet been employed for routine clinical use. The clinical translation of first-generation integrin-targeting PET tracers with ^18F, e.g., ^18F-Galacto-RGD, was hampered by complex radiochemistry. Thus, several approaches to optimize the production and tracer stability as well as tumor-binding properties have been investigated. Addressing the need for assessing integrin αvβ3, our group evaluated a number of PET tracers uti ...

[4] = tested on: head and neck squamous cell carcinoma; details: 10 patients with head and neck squamous cell carcinoma; cited from earlier work
From the text: (§1) A secondary objective of our study was to assess [^68Ga]Ga-NODAGA-E[c(RGDyK)]2 uptake in tumors.

[5] = in vivo; cited from earlier work
From the text: as §1

N=C(N)NCCC[C@@H]1NC(=O)[C@H](CCCCNC(=O)CC[C@H](NC(=O)CCC(C(=O)O)N2CCN(CC(=O)O)CCN(CC(=O)O)CC2)C(=O)NCCCC[C@@H]2NC(=O)[C@@H](Cc3ccc(O)cc3)NC(=O)[C@H](CC(=O)O)NC(=O)CNC(=O)[C@H](CCCNC(=N)N)NC2=O)NC(=O)[C@@H](Cc2ccc(O)cc2)NC(=O)[C@H](CC(=O)O)NC(=O)CNC1=O (stereo partly drawn) [[^68Ga]Ga-NODAGA-E[c(RGDyK)]2, metal not drawn]
acute or long-term effects on blood parameters or organ function [1]: No acute or long-term effects
changes in vital signs, laboratory studies or electrocardiograms [1]: No significant changes
Mean Absorbed Dose, Adrenals [2]: 0.0245 mGy/MBq
Mean Absorbed Dose, Brain [2]: 0.00252 mGy/MBq
Mean Absorbed Dose, Breasts [2]: 0.0105 mGy/MBq
Mean Absorbed Dose, Esophagus [2]: 0.0112 mGy/MBq
Mean Absorbed Dose, Eyes [2]: 0.00929 mGy/MBq
Mean Absorbed Dose, Gallbladder Wall [2]: 0.0143 mGy/MBq
Mean Absorbed Dose, Heart Wall [2]: 0.0146 mGy/MBq
Mean Absorbed Dose, Kidneys [2]: 0.0627 mGy/MBq
Mean Absorbed Dose, Left Colon [2]: 0.0136 mGy/MBq
Mean Absorbed Dose, Liver [2]: 0.0279 mGy/MBq
Mean Absorbed Dose, Lungs [2]: 0.00792 mGy/MBq
Mean Absorbed Dose, Osteogenic Cells [2]: 0.0136 mGy/MBq
Mean Absorbed Dose, Ovaries [2]: 0.0154 mGy/MBq
Mean Absorbed Dose, Pancreas [2]: 0.0144 mGy/MBq
Mean Absorbed Dose, Prostate [2]: 0.0133 mGy/MBq
Mean Absorbed Dose, Rectum [2]: 0.0151 mGy/MBq
Mean Absorbed Dose, Red Marrow [2]: 0.015 mGy/MBq
Mean Absorbed Dose, Right Colon [2]: 0.0131 mGy/MBq
Mean Absorbed Dose, Salivary Glands [2]: 0.00996 mGy/MBq
Mean Absorbed Dose, Small Intestine [2]: 0.0603 mGy/MBq
Mean Absorbed Dose, Spleen [2]: 0.0504 mGy/MBq
Mean Absorbed Dose, Stomach Wall [2]: 0.0263 mGy/MBq
Mean Absorbed Dose, Testes [2]: 0.0192 mGy/MBq
Mean Absorbed Dose, Thymus [2]: 0.011 mGy/MBq
Mean Absorbed Dose, Thyroid [2]: 0.0663 mGy/MBq
Mean Absorbed Dose, Total Body [2]: 0.0133 mGy/MBq
Mean Absorbed Dose, Urinary Bladder Wall [2]: 0.126 mGy/MBq
Mean Absorbed Dose, Uterus [2]: 0.018 mGy/MBq
effective dose [2]: 0.0218 mSv/MBq
effective dose (radiation exposure) at injected activity of 200 MBq [2]: 4.4 mSv
kidney radiation [2]: 0.063 mGy/MBq
radiation dose, kidneys [2]: 0.063 mSv/MBq
radiation dose, thyroid [2]: 0.066 mSv/MBq
radiation dose, urinary bladder wall [2]: 0.126 mSv/MBq
plasma half-life ([3]; human): 8.6 min
plasma metabolites by reversed-phase HPLC [3]: two unknown polar metabolites

NODAGA-E[c(RGDyK)]2 (head to tail) [unlabelled precursor of the tracer, obtained as acetate from ABX GmbH]
Kd (integrin subtype αvβ3): 0.075 nM

[^68Ga]Ga-NODAGA-RGDyK [monomeric RGD PET tracer]
mean SUVmax in the primary tumor [4]: 3.9 ± 1.1
effective dose [5]: 19.8 µSv/MBq
kidney radiation [5]: 0.046 mGy/MBq
